In patent US20210115146A1 (WUXI BIOLOGICS IRELAND, published 2021):
Several values for one entry are separate records, joined by “and”; a condition that tells them apart may be missing. Equal values may be shown once.

Experiments:
[1] = biological target: T1, human EGFRvIII (cell surface) (human, UniProt P00533 25-1210); experiment: FACS on EGFRvIII transfected cells, anti-c-Myc-biotin and streptavidin-PE
T1 construct: whole, on cells; also called hEGFRIII; EGFR variant III

[2] = biological target: T2, human EGFR (cell surface) (human, UniProt P00533 25-1210); experiment: FACS competition, competitor W5626-2C10-z5; lower panel 'Binning with W5626-2C10-z5'; cells not named on the sheet, A431 in the example
T2 construct: whole, on cells; also called W562-CHO-K1.hPro1.E9 cells; A431 cells

[3] = biological target: T2, human EGFR (cell surface); experiment: FACS competition, competitor W5626-2C2-z22; upper panel 'Binning with W5626-2C2-z22'; cells not named on the sheet, A431 in the example
HER3.his [4] = biological target: T3, HER3.his (Homo sapiens (Human), UniProt P21860 20-643); experiment: ELISA, antigen coated at 2 µg/mL, anti-cMyc-HRP detection
Method: (§1) Non-specific binding ELISA was performed in 96-well high binding plates (Nunc-Immuno Plate, Thermo Scientific). The plate was coated with various antigens at 2 μg/mL overnight at 4° C. […] The plates were subsequently incubated with the secondary antibody Goat anti-cMyc-HRP (Bethyl) for additional 1 hour. The HRP signal was detected by adding TMB substrate and the reaction was stopped after 12 minutes using 2M HCl. The absorbance at 450 nm was read using a microplate reader (Molecular Device). All incubation steps were performed at room temperature. The plate was washed with PBST (0.05% Tween20-PBS) between each step.

4-1BB.his [5] = biological target: T4, 4-1BB.his (Homo sapiens (Human), UniProt Q07011 24-186); experiment: as above
T4 sequence (Q07011 24-186 limits assumed): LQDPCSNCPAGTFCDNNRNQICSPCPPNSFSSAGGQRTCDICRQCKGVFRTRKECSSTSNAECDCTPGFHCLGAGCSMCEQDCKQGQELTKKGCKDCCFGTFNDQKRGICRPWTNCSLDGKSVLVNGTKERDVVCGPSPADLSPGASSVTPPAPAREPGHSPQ
Method: as §1

HSA [6] = biological target: T5, HSA (UniProt P02768 25-609); experiment: as above
Method: as §1

Factor Eight = experiment: non-specific binding ELISA, 10 µg/ml VHH on coated antigen
Method: as §1

FGFR.his = experiment: as above
Method: as §1

CD147 = experiment: as above
Method: as §1

PD-1.his = experiment: as above
Chain of PD-1.his (Q15116 25-170): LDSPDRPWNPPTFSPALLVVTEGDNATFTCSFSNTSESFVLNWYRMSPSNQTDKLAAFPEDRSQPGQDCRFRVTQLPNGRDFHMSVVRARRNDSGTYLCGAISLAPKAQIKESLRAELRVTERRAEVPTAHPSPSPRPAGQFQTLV
Method: as §1

CTLA4.his = experiment: as above
Chain of CTLA4.his (P16410 36-161): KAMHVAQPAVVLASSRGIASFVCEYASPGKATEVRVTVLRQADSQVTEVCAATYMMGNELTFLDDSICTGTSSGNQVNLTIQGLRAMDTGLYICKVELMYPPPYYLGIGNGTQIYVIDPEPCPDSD
Method: as §1

W317-hPro1.ECD.his = experiment: as above
Method: as §1

CD22.his = experiment: as above
Method: as §1

VEGF.his = experiment: as above
Method: as §1

CD3.his = experiment: as above
Method: as §1

HER3.his [7] = biological target: T3, HER3.his; experiment: as above
Method: as §1

OX40.his = experiment: as above
Chain of OX40.his (P43489 29-214): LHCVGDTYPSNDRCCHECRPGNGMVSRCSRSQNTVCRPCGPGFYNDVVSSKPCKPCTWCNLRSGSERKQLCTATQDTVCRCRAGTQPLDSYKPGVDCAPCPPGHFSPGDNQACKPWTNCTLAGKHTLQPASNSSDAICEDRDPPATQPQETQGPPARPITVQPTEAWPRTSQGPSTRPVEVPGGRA
Method: as §1

4-1BB.his [8] = biological target: T4, 4-1BB.his; experiment: as above
Method: as §1

CD40 = experiment: as above
Chain of CD40 (P25942 21-193): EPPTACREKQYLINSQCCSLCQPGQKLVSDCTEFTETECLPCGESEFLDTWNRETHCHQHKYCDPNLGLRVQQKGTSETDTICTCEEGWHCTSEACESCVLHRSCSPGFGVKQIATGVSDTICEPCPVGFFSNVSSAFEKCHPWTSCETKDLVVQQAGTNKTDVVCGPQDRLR
Method: as §1

HSA [9] = biological target: T5, HSA; experiment: as above
Method: as §1

[10] = biological target: T2, human EGFR (cell surface); experiment: cell-based or functional assay
[11] = biological target: T2, human EGFR (cell surface); experiment: FACS on cells carrying human EGFR
Method: (§2) The binding of antibodies to cell surface EGFR was assessed by FACS with EGFR transfected cells and A431 cell line, which over expresses human EGFR. 1×10⁵ cells/well were plated in a 96-well plate and centrifuged at 210 g for 5 minutes at 4° C. After removing the supernatant, the cell pellets were re-suspended with serial dilutions of testing purified antibodies in 1% BSA-PBS and incubated for 1 hour at 4° C., followed by incubation with FITC conjugated goat anti-human IgG (Jackson ImmunoResearch) at 4° C. for 1 hour. Two times of washing with 200 μl/well 1% BSA-PBS were applied between each step. Finally, the cells were resuspended in 100 μl 1% BSA-PBS for flow cytometry analysis (Intellicyt).

[12] = biological target: T6, mouse EGFR (cell surface) (mouse, UniProt Q01279 25-1210); experiment: FACS on cells expressing mouse EGFR
T6 construct: whole, on cells; also called W562-CHO-K1.mProl.F3 cells
Method: as §2

[13] = biological target: T7, Macaca fascicularis EGFR (cell surface) (Macaca fascicularis, UniProt A0A2K5WK39 25-1210); experiment: FACS on cells expressing monkey EGFR
T7 construct: whole, on cells; also called monkey EGFR; cyno EGFR
Method: as §2

[14] = biological target: T2, human EGFR (cell surface); experiment: FACS competition with EGF-biotin (50 ng/ml) on A431 cells
Method: EGFR-expressing A431 cells were routinely maintained in DMEM containing 10% FBS, 10 mM HEPES and L-glutamine. 10⁵ cells per well were added to each well of a 96-well plate and centrifuged at 210 g for 5 minutes at 4° C. before the supernatant was removed. Serial dilutions of test antibodies were added to the pelleted cells and incubated for 1 hour at 4° C. […] MFI of the cells was measured by flow cytometry and analyzed by FlowJo.

[15] = biological target: T2, human EGFR (cell surface); experiment: FACS affinity on transfected cells, quantitative beads
Method: (§3) Human, cyno, mouse EGFR and human EGFRvIII transfected cells were transferred in to 96-well U-bottom plates (BD) at a density of 5×10⁴ cells/well, respectively. Testing antibodies were 1:3.16-fold serially diluted in 1% BSA-PBS and incubated with the cells at 4° C. for 1 hr. The secondary antibody, Alexa647 conjugated goat anti-human IgG Fc (Jackson Immunoresearch Lab), was added to resuspended cells and incubated at 4° C. in the dark for 1 hr. The cells were then washed once and resuspended in PBS with 1% BSA, and analyzed by flow cytometery (BD). Fluorescence intensity was converted to bound molecules/cell based on the quantitative beads (Quantum™ MESF Kits, Bangs Laboratories). KD was calculated using Graphpad Prism5.

[16] = biological target: T7, Macaca fascicularis EGFR (cell surface); experiment: as above
Method: as §3

[17] = biological target: T6, mouse EGFR (cell surface); experiment: as above
Method: as §3

[18] = biological target: T1, human EGFRvIII (cell surface); experiment: as above
Method: as §3

[19] = biological target: T8, human EGFR ECD protein (W562-hPro1.ECD.his) (human, UniProt P00533 25-645); experiment: SPR (ProteOn XPR36), antibody captured by anti-human IgG Fc, EGFR ECD.his as analyte
T8 construct: extracellular domain; Made in HEK293 cells
Method: Each antibody was captured on an anti-human IgG Fc antibody immobilized GLM sensor chip (Bio-Rad). W562-hPro1.ECD.his at different concentrations was injected over the sensor chip at a flow rate of 100 uL/min for an association phase of 240 s, followed by 1800 s dissociation. The chip was regenerated by 10 mM glycine (pH 1.5) after each binding cycle. The sensorgrams of blank surface and buffer channel were subtracted from the test sensorgrams. The experimental data was fitted by 1:1 binding model using Langmiur analysis. Molecular weight of 85 kDa was used to calculate the molar concentration of analyte.

[20] = biological target: T2, human EGFR (cell surface); experiment: FACS binding to A431 cells (printed 'A432' in paragraph 253) after 0, 1, 4, 7 and 14 days in human serum at 37 C; upper panel
Method: Freshly collected human blood was incubated in polystyrene tubes without anticoagulant for 30 minutes at room temperature. The Serum was collected after centrifugation the blood at 4000 rpm for 10 minutes. Repeat the centrifugation until the serum was clarifying. Gently mix antibodies with serum and ensure the serum content >95%. The mix aliquots were incubated at 37° C. for 0 day, 1 day, 4 days, 7 days and 14 days, respectively. At the indicated time point the samples were quickly-frozen in liquid nitrogen and stored at −80° C. until analysis. The cell bindings of the serial dilutions of the antibody samples to A432 cells were analyzed by FACS. Four-parameter non-linear regression analysis was used to obtain EC₅₀ values for cell binding using GraphPad Prism 5 software (GraphPad Software, La Jolla, Calif.).

Row | EC50 [1] | IC50 (read off the curve) [2] | IC50 (read off the curve) [3] | binding result (HER3.his [4]) | binding result (4-1BB.his [5]) | binding result (HSA [6]) | OD A450 (Factor Eight) | OD A450 (FGFR.his) | OD A450 (CD147) | OD A450 (PD-1.his) | OD A450 (CTLA4.his) | OD A450 (W317-hPro1.ECD.his) | OD A450 (CD22.his) | OD A450 (VEGF.his) | OD A450 (CD3.his) | OD A450 (HER3.his [7]) | OD A450 (OX40.his) | OD A450 (4-1BB.his [8]) | OD A450 (CD40) | OD A450 (HSA [9]) | Binder | also measured
1 | 1.08 nM | ~1 nM | ~1 nM |  |  |  |  |  |  |  |  |  |  |  |  |  |  |  |  |  | W5626-2C10.VHH (VHH, c-Myc and his-tagged VHH fragment made in E. coli BL21; not shown: 6-his and c-Myc tags fused at the C-terminus) VHH: AVQLVESGGGLVQAGGSLTLSCAASGRTFSSYAMGWFRQAPGKEREFVAADRWSGGNTRYADSVKGRFTISRDNAKNTVYLQMNSLKPEDTAVYYCAATYLSSDYEWGVPPKAYDYDYWGQGTQVTVSS | 
2 |  |  |  | no binding (tested: 10 µg/ml) | no binding (tested: 10 µg/ml) | no binding (tested: 10 µg/ml) | 0.04 OD A450 | 0.05 OD A450 | 0.04 OD A450 | 0.04 OD A450 | 0.04 OD A450 | 0.05 OD A450 | 0.05 OD A450 | 0.05 OD A450 | 0.04 OD A450 | 0.04 OD A450 | 0.04 OD A450 | 0.05 OD A450 | 0.05 OD A450 | 0.05 OD A450 | W5626-2C10-z5 (VHH) (VHH, also called c-Myc and his-tagged VHH fragment of W5626-2C10-z5; not shown: c-Myc and his tags) VHH: AVQLVESGGGLVQPGGSLTLSCAASGRTFSSYAMGWFRQAPGKEREFVAADRWSGGNTRYADSVKGRFTISRDNAKNTLYLQMNSLRAEDTAVYYCAATYLSSDYEWGVPPKAYDYDYWGQGTLVTVSS | 
3 | 2.41 nM | ~1 nM | ~2 nM |  |  |  |  |  |  |  |  |  |  |  |  |  |  |  |  |  | W5626-2C2.VHH (VHH, c-Myc and his-tagged VHH fragment made in E. coli BL21; not shown: 6-his and c-Myc tags fused at the C-terminus) VHH: EVQLVESGGGLVQAGDSLRLSCAASGRTHSNYVMGWFRQAPGQEREFVAGISRTYGNTYYRDSVEGRFTISVDNPKNTVYLQMNSLKPEDTAVYYCAADPTRSEVILTTSHRYVYWGQGTLVTVSS | 
4 |  |  |  | no binding (tested: 10 µg/ml) | no binding (tested: 10 µg/ml) | no binding (tested: 10 µg/ml) | 0.05 OD A450 | 0.05 OD A450 | 0.06 OD A450 | 0.06 OD A450 | 0.07 OD A450 | 0.07 OD A450 | 0.06 OD A450 | 0.07 OD A450 | 0.06 OD A450 | 0.06 OD A450 | 0.05 OD A450 | 0.06 OD A450 | 0.06 OD A450 | 0.07 OD A450 | W5626-2C2-z22 (VHH) (VHH, also called c-Myc and his-tagged VHH fragment of W5626-2C2-z22; not shown: c-Myc and his tags) VHH: EVQLVESGGGLVQPGGSLRLSCAASGRTHSNYVMGWFRQAPGQEREFVAGISRTYGNTYYRDSVEGRFTISRDNSKNTLYLQMNSLRAEDTAVYYCAADPTRSEVILTTSHRYVYWGQGTLVTVSS | 
5 |  |  |  |  |  |  |  |  |  |  |  |  |  |  |  |  |  |  |  |  | W5626-2C2-z22 (humanized VHH of W5626-2C2 further comprising a human Fc of IgG1 isotype) (Fc fusion, Bivalent humanized VHH linked with human IgG1 Fc region; not shown: human IgG1 Fc region from a modified pcDNA3.3 vector) EVQLVESGGGLVQPGGSLRLSCAASGRTHSNYVMGWFRQAPGQEREFVAGISRTYGNTYYRDSVEGRFTISRDNSKNTLYLQMNSLRAEDTAVYYCAADPTRSEVILTTSHRYVYWGQGTLVTVSS | EC50 of EGFR internalization (Fab-ZAP, viability of A431 cells) [10]: 0.17 nM; IC50 of inhibition of EGFR phosphorylation (pEGFR sandwich ELISA, A431 cells stimulated with EGF) [10]: 22.6 nM and 10.4 nM; EC50 [11]: 0.83 nM; EC50 [12]: 0.65 nM; EC50 [13]: 0.25 nM; IC50 [14]: 1.35 nM; Bmax [15]: 860 pM; Kd [15]: 1.1 nM; Bmax [16]: 230 pM; Kd [16]: 0.26 nM; Bmax [17]: 1 nM; Kd [17]: 0.51 nM; Bmax [18]: 530 pM; Kd [18]: 0.24 nM; Kd [19]: 3.22 nM; koff [19]: 0.00209 s⁻¹; kon [19]: 649000 M⁻¹ s⁻¹; EC50 (read off the curve) [20]: ~0.9 nM
